Results as given in paper PMC11214410 (iScience, 2024).

Target: T1, His-p97 F539A (human, UniProt P55072 1-806, F539A)
T1 construct: Homohexamer in the cryo-EM structure; also called F539A (D2); D2 mutant
Assay: cross-linking; purified p97 F539A (1.26 mg/mL) and its adaptor (0.66 mg/mL) in 50mM HEPES pH 7.5, 30mM KCl, 10, 50 or 100 μM DTSSP, 30 min room temperature; trypsin, LC-MS/MS
Conditions: both partners purified

T1 sequence (P55072 whole entry F539A): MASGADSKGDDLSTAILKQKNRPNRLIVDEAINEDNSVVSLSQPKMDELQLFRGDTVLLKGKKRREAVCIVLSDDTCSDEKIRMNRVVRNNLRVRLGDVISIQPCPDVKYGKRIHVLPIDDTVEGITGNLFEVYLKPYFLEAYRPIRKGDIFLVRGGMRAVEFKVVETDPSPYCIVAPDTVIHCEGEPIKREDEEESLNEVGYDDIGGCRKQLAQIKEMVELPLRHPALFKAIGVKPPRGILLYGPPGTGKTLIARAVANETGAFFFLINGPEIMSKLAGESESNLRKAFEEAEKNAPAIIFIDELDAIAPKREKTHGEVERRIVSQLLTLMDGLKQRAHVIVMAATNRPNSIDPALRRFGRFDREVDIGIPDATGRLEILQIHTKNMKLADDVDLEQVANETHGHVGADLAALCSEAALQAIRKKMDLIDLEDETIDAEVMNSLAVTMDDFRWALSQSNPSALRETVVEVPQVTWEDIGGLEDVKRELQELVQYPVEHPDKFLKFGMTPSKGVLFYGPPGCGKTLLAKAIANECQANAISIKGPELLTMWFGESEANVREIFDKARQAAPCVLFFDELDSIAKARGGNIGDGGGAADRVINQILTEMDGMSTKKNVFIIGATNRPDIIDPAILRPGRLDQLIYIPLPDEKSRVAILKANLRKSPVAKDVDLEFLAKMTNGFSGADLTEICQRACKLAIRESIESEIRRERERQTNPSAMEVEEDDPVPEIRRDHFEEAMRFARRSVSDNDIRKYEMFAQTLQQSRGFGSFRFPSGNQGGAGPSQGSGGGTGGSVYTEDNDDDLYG

binding result: binds
B1: Npl4 (untagged) (natural protein, rat, UniProt Q9ES54 1-608, looked up)
chain: MAESIIIRVQSPDGVKRITATKRETAATFLKKVAKEFGFQNNGFSVYINRNKTGEITASSSKSLHLLKIKHGDLLFLFPSSLAGPSSEMETSTSVGLKAFGAPHVVEDEIDQYLSKQDGKIYRSRDPQLCRHGPLGKCVHCVPLEPFDEDYLNHLEPPVKHMSFHAYIRKLTGGADKGKFVALENISCKIKSGCEGHLPWPNGICTKCQPSAITLNRQKYRHVDNIMFENHTVADRFLDFWRKTGNQHFGYLYGRYTEHKDIPLGIRAEVAAIYEPPQIGTQNSLELLEDPKAEVVDEIASKLGLRKVGWIFTDLVSEDTRKGTVRYSRNKDTYFLSSEECITAGDFQNKHPNICRLSPDGHFGSKFVTAVATGGPDNQVHFEGYQVSNQCMALVRDECLLPCKDAPELGYAKESSSEQYVPDVFYKDIDKFGNEITQLARPLPVEYLIIDITTTFPKDPVYTFSISQNPFPIENRDVLGETQDFHSLATYLSQNTSSVFLDTISDFHLLLFLVTNEVMPLQDSISLLLEAVRTRNEELAQTWKKSEQWATIEQLCSTVGVQLPGLHEFGAVGGSARAATSAMWACQHCTFMNQPGTGHCEMCSLPRT
notes: Npl4, untagged, expressed from pET30-Npl4; the cross-linking data were searched against rat Npl4; In the cryo-EM and cross-linking experiments Npl4 stood as part of the Ufd1/Npl4 heterodimer; source: E. coli BL21 (DE3), in lysate
